# Results as given in PMC4937676 (Asia Oceania Journal of Nuclear Medicine and Biology, 2016).
# Like-named read-outs stand apart in the source and are kept apart here.
# Columns and labels:
# [1] = design: species or system human
# Method: The accumulated source activity for each animal organ was calculated according to Equation 4, where A (t) is the activity of each organ at time t: For this purpose, data points representing the non-decay corrected percentage of the injected dose were created. A linear approximation was applied between the two experimental points of time. The curves were extrapolated to infinity by fitting the tail of each curve to a mono-exponential curve with an exponential coefficient equal to the physical decay constant of ^68Ga. The accumulated activity in animals was calculated by computing the area under the curves, extrapolated to the accumulated activity in human organs, using a method proposed by Sparks et al. (Equation 5) and the standard mean weight of each human organ ([21], [22], [23]): The absorbed dose in human organs was calculated by the Radiation Absorbed Dose Assessment Resource (RADAR) formalism, based on the biodistribution data in rats ([22]): In the equation above, ni is the number of radiations with energy E emitted per nuclear transition, Ei is the energy per radiation (MeV), Qi is the fraction of emitted energy absorbed by the target, m is the mass of the target region (kg) and k is the proportionality constant [drawing 8] DF represents the physical decay characteristics of the radionuclide, the range of emitted radiations and the organ size and configuration, expressed in mGy/MBq.s ([24]). In this study, DF values were obtained from OLINDA/EXM software ([22]). The effective absorbed dose in each organ was calculated, using the following formula: […] where HT is the equivalent absorbed dose in each organ and WT is the tissue-weighing factor, which represents a subjective balance between different stochastic health risks ([25]). WT was obtained from the International Commission on Radiological Protection (ICRP) publication 103 ([26]).
# [2] = cited from earlier work
# Method: In this regard, in a study by Ugur et al., the absorbed dose of kidneys was calculated to be 1090 mGy/MBq, based on biodistribution studies on AR42J rat pancreatic tumors ([2]), whereas an absorbed dose of 0.082 mGy/MBq was reported in kidneys of patients with disseminated neuroendocrine tumors ([37]). However, the absorbed dose of the pancreas as a somatostatin receptor-positive organ was not evaluated in previous research. || As mentioned earlier, the dose delivered to the pancreas has not been evaluated in previous literature. […] On the other hand, the absorbed dose of adrenal glands was somewhat lower than the value reported in the mentioned study, while being in great accordance with the absorbed dose of liver after ^68Ga-DOTATATE injection (0.015 mGy/MBq) in a study by Walker et al. ([41]). || In the present study, the effective absorbed dose was calculated at 0.026 mSv/MBq, which was higher than the value reported by Sandstrom and colleagues (0.021 mSv/MBq). The lower effective absorbed dose in the mentioned study corresponded to lower organ consideration for dosimetric calculations, compared to the present study. Finally, the dose received by critical organs was well within the acceptable range for diagnostic nuclear medicine procedures ([31], [42]).
# [3] = in vivo; conditions: male, Syrian, rat, iv, 5.55 MBq, total radioactivity, Percentage of injected dose per gram (%ID/g)
# Method: (§1) The total amount of radioactivity injected in each animal was measured by counting the 1 mL syringe before and after the injection in a dose calibrator with fixed geometry. The biodistribution of the solution among tissues was determined by sacrificing four rats at each selected time interval (15, 30, 60 and 120 min) after injection, based on animal care protocols.
# (§2) Blood samples were rapidly taken after animal sacrifice. The tissues (heart, kidneys, spleen, stomach, intestine, lung, liver, skin, bone, muscle, thyroid, adrenal glands, salivary gland and pancreas) were weighed and rinsed with normal saline and their activities were determined, using a p-type coaxial HPGe detector, coupled with a multi-channel analyzer, based on Equation 1 ([20]):
# (§3) The percentage of the injected dose per gram (%ID/g) for different organs was calculated by dividing the amount of activity in each tissue (A) to the decay-corrected injected activity and the mass of each organ. Four rats were sacrificed at each time interval. All values were expressed as mean ± standard deviation and the data were compared, using student’s t-test.
# [4] = Biodistribution in Syrian rats after intravenous injection; conditions: male Syrian rats; for Percentage of injected dose per gram (%ID/g), Blood / Percentage of injected dose per gram (%ID/g), Bone / Percentage of injected dose per gram (%ID/g), Intestine / Percentage of injected dose per gram (%ID/g), Kidneys / Percentage of injected dose per gram (%ID/g), Liver / Percentage of injected dose per gram (%ID/g), Spleen / Percentage of injected dose per gram (%ID/g), Stomach: 5.55 MBq i.v. tail vein, mean ± SD, n = 4
# Method: as §1, §2, §3
# [5] = 5.55 MBq i.v., maximum over 15-120 min, time not stated
smiles,measurement,setting,value
"C[C@@H](O)[C@@H]1NC(=O)[C@H](CCCCN)NC(=O)[C@@H](Cc2c[nH]c3ccccc23)NC(=O)[C@H](Cc2ccc(O)cc2)NC(=O)[C@@H](NC(=O)[C@@H](Cc2ccccc2)NC(=O)CN2CCN(CC(=O)O)CCN(CC(=O)O)CCN(CC(=O)O)CC2)CSSC[C@@H](C(=O)N[C@H](CO)[C@@H](C)O)NC1=O [^68Ga-DOTATOC, Gallium-68 DOTA-DPhe^1-Tyr^3-Octreotide, metal not drawn]",Effective absorbed dose,[1],0.026 mSv/MBq
same,"Equivalent absorbed dose in humans, Adrenals",[1],0.010 mGy/MBq
same,"Equivalent absorbed dose in humans, Bone Surf",[1],0.008 mGy/MBq
same,"Equivalent absorbed dose in humans, Heart",[1],0.004 mGy/MBq
same,"Equivalent absorbed dose in humans, Kidneys",[1],0.074 mGy/MBq
same,"Equivalent absorbed dose in humans, Liver",[1],0.010 mGy/MBq
same,"Equivalent absorbed dose in humans, Lungs",[1],0.001 mGy/MBq
same,"Equivalent absorbed dose in humans, Red Marrow",[1],0.003 mGy/MBq
same,"Equivalent absorbed dose in humans, Small Intestine",[1],0.008 mGy/MBq
same,"Equivalent absorbed dose in humans, Spleen",[1],0.009 mGy/MBq
same,"Equivalent absorbed dose in humans, Stomach",[1],0.003 mGy/MBq
same,"Equivalent absorbed dose in humans, Total Body",[1],0.008 mGy/MBq
same,Absorbed dose of kidneys,[2],0.082 mGy/MBq
same,Effective absorbed dose,[2],0.021 mSv/MBq
same,tissue uptake at 0.25 h,[3]; Adrenal,0.91 ± 0.05 %ID/g
same,tissue uptake at 0.5 h,[3]; Adrenal,0.75 ± 0.06 %ID/g
same,tissue uptake at 1 h,[3]; Adrenal,0.6 ± 0.04 %ID/g
same,tissue uptake at 2 h,[3]; Adrenal,0.44 ± 0.01 %ID/g
same,tissue uptake at 0.25 h,[3]; Blood,4.51 ± 0.21 %ID/g
same,tissue uptake at 0.5 h,[3]; Blood,1.98 ± 0.15 %ID/g
same,tissue uptake at 1 h,[3]; Blood,1.53 ± 0.11 %ID/g
same,tissue uptake at 0.25 h,[3]; Bone,0.95 ± 0.08 %ID/g
same,tissue uptake at 0.5 h,[3]; Bone,0.58 ± 0.03 %ID/g
same,tissue uptake at 2 h,[3]; Bone,0.05 %ID/g
same,tissue uptake at 0.25 h,[3]; Heart,1.68 ± 0.08 %ID/g
same,tissue uptake at 0.5 h,[3]; Heart,1.01 ± 0.07 %ID/g
same,tissue uptake at 1 h,[3]; Heart,0.73 ± 0.07 %ID/g
same,tissue uptake at 2 h,[3]; Heart,0.03 %ID/g
same,tissue uptake at 0.25 h,[3]; Intestine,0.48 ± 0.06 %ID/g
same,tissue uptake at 0.5 h,[3]; Intestine,0.56 ± 0.05 %ID/g
same,tissue uptake at 1 h,[3]; Intestine,0.39 ± 0.04 %ID/g
same,tissue uptake at 2 h,[3]; Intestine,0.38 ± 0.04 %ID/g
same,tissue uptake at 0.25 h,[3]; Kidneys,11.9 ± 0.21 %ID/g
same,tissue uptake at 0.5 h,[3]; Kidneys,8.99 ± 0.13 %ID/g
same,tissue uptake at 1 h,[3]; Kidneys,8 ± 0.18 %ID/g
same,tissue uptake at 2 h,[3]; Kidneys,2.51 ± 0.1 %ID/g
same,tissue uptake at 0.25 h,[3]; Liver,0.79 ± 0.09 %ID/g
same,tissue uptake at 0.5 h,[3]; Liver,0.58 ± 0.08 %ID/g
same,tissue uptake at 1 h,[3]; Liver,0.46 ± 0.03 %ID/g
same,tissue uptake at 2 h,[3]; Liver,0.2 %ID/g
same,tissue uptake at 0.25 h,[3]; Lung,0.35 ± 0.06 %ID/g
same,tissue uptake at 1 h,[3]; Lung,0.13 ± 0.01 %ID/g
same,tissue uptake at 2 h,[3]; Lung,0.02 %ID/g
same,tissue uptake at 0.25 h,[3]; Muscle,0.4 ± 0.05 %ID/g
same,tissue uptake at 2 h,[3]; Muscle,0.02 %ID/g
same,tissue uptake at 0.25 h,[3]; Pancreas,12.8 ± 0.28 %ID/g
same,tissue uptake at 0.5 h,[3]; Pancreas,9.55 ± 0.18 %ID/g
same,tissue uptake at 1 h,[3]; Pancreas,6.62 ± 0.22 %ID/g
same,tissue uptake at 2 h,[3]; Pancreas,5.31 ± 0.15 %ID/g
same,tissue uptake at 0.25 h,[3]; Salivary gland,1.22 ± 0.1 %ID/g
same,tissue uptake at 0.5 h,[3]; Salivary gland,0.77 ± 0.04 %ID/g
same,tissue uptake at 1 h,[3]; Salivary gland,0.54 ± 0.03 %ID/g
same,tissue uptake at 1 h,[3]; Skin,0.08 %ID/g
same,tissue uptake at 2 h,[3]; Skin,0.03 %ID/g
same,tissue uptake at 0.25 h,[3]; Spleen,0.38 ± 0.04 %ID/g
same,tissue uptake at 0.5 h,[3]; Spleen,0.93 ± 0.07 %ID/g
same,tissue uptake at 1 h,[3]; Spleen,0.16 ± 0.02 %ID/g
same,tissue uptake at 2 h,[3]; Stomach,0.17 ± 0.02 %ID/g
same,tissue uptake at 1 h,[3]; Thyroid,0.16 ± 0.04 %ID/g
[Cl][68Ga]([Cl])[Cl] [^68GaCl3],"Percentage of injected dose per gram (%ID/g), Blood",[4]; 15 min after injection,3.18±0.17 %ID/g
same,"Percentage of injected dose per gram (%ID/g), Bone",[4]; 15 min after injection,0.56±0.06 %ID/g
same,"Percentage of injected dose per gram (%ID/g), Intestine",[4]; 15 min after injection,0.71±0.06 %ID/g
same,"Percentage of injected dose per gram (%ID/g), Kidneys",[4]; 15 min after injection,0.70±0.09 %ID/g
same,"Percentage of injected dose per gram (%ID/g), Liver",[4]; 15 min after injection,0.91±0.02 %ID/g
same,"Percentage of injected dose per gram (%ID/g), Spleen",[4]; 15 min after injection,0.51±0.09 %ID/g
same,"Percentage of injected dose per gram (%ID/g), Stomach",[4]; 15 min after injection,0.41±0.11 %ID/g
same,"Percentage of injected dose per gram (%ID/g), Blood",[4]; 30 min after injection,2.98±0.12 %ID/g
same,"Percentage of injected dose per gram (%ID/g), Bone",[4]; 30 min after injection,0.91±0.10 %ID/g
same,"Percentage of injected dose per gram (%ID/g), Intestine",[4]; 30 min after injection,0.82±0.08 %ID/g
same,"Percentage of injected dose per gram (%ID/g), Kidneys",[4]; 30 min after injection,0.41±0.10 %ID/g
same,"Percentage of injected dose per gram (%ID/g), Liver",[4]; 30 min after injection,1.50±0.12 %ID/g
same,"Percentage of injected dose per gram (%ID/g), Spleen",[4]; 30 min after injection,0.70±0.06 %ID/g
same,"Percentage of injected dose per gram (%ID/g), Stomach",[4]; 30 min after injection,0.56±0.07 %ID/g
same,"Percentage of injected dose per gram (%ID/g), Blood",[4]; 60 min after injection,2.53±0.11 %ID/g
same,"Percentage of injected dose per gram (%ID/g), Bone",[4]; 60 min after injection,1.20±0.11 %ID/g
same,"Percentage of injected dose per gram (%ID/g), Intestine",[4]; 60 min after injection,0.89±0.05 %ID/g
same,"Percentage of injected dose per gram (%ID/g), Kidneys",[4]; 60 min after injection,1.42±0.12 %ID/g
same,"Percentage of injected dose per gram (%ID/g), Liver",[4]; 60 min after injection,0.78±0.08 %ID/g
same,"Percentage of injected dose per gram (%ID/g), Spleen",[4]; 60 min after injection,1.03±0.10 %ID/g
same,"Percentage of injected dose per gram (%ID/g), Stomach",[4]; 60 min after injection,1.21±0.09 %ID/g
same,"Percentage of injected dose per gram (%ID/g), Blood",[4]; 120 min after injection,2.44±0.14 %ID/g
same,"Percentage of injected dose per gram (%ID/g), Bone",[4]; 120 min after injection,1.05±0.09 %ID/g
same,"Percentage of injected dose per gram (%ID/g), Intestine",[4]; 120 min after injection,0.61±0.07 %ID/g
same,"Percentage of injected dose per gram (%ID/g), Kidneys",[4]; 120 min after injection,0.91±0.08 %ID/g
same,"Percentage of injected dose per gram (%ID/g), Liver",[4]; 120 min after injection,0.60±0.05 %ID/g
same,"Percentage of injected dose per gram (%ID/g), Spleen",[4]; 120 min after injection,1.43±0.12 %ID/g
same,"Percentage of injected dose per gram (%ID/g), Stomach",[4]; 120 min after injection,1.54±0.14 %ID/g
same,"Activity content in the bone, maximum value",[4]; [5],1.20 %ID/g
same,"Activity content in the stomach, maximum value",[4]; [5],1.54 %ID/g
